These results are taken from patent US20190233475A1 (Bicycle, published 2019).

What is called Ki is the dissociation constant of the complex between target and ligand, obtained from inhibition or displacement.

Common to all, as to test: enzyme inhibition assay, fluorogenic substrate Z-PheArg-AMC
Assay [1] concerns the target T1, human plasma kallikrein (human, UniProt P03952 20-638).
T1 construct: Enzyme used in the Ki assays; also called human kallikrein; PK
On the procedure: (§1) Functional enzyme assays were conducted in 10 mM Tris HCl, 150 mM NaCl, 10 mM MgCl₂, 1 mM CaCl₂ and 1 mg/mL BSA (all Sigma UK) pH 7.4 at 25° C. in solid black 96 or 384 well plates. […] Release of AMC was measured using a Pherastar FS (BMG Labtech), excitation 360 nm, emission 460 nm. The rate of the linear phase of the reaction, typically 5 to 45 minutes, was calculated in MARS data analysis software (BMG labtech). The rate was then used to calculate the IC₅₀ and Kᵢ in Prism (GraphPad). A four parameter inhibition non-linear regression equation was used to calculate the IC₅₀. The One site-fit Kᵢ equation used to calculate the Kᵢ, constraining the Kᵢ to the Kₘ for the substrate which is 150 μM for the human enzyme, and 200 μM for the rat orthologue. All Kᵢ/IC₅₀ values are the mean of at least two independent experiments, and at least three for peptides with Kᵢ values lower than 1 nM. For rabbit kallikrein, between 7 to 14 pM enzyme was employed, with 33 μM substrate with a Kₘ of 50 μM.

Assay [2] concerns the target T2, rabbit plasma kallikrein (rabbit, UniProt G1T127 20-390; G1T127 391-629, The active enzyme is two chains, heavy and catalytic light, joined by a disulfide after cleavage at Arg390-Ile391. The letters do not carry the natural glycosylation.).
T2 construct: also called rabbit kallikrein
As to the method:
as §1

Assay [3] has as its target T3, rat plasma kallikrein (rat, UniProt P14272 391-638).
T3 construct: domain: catalytic domain; Expressed and purified in house; also called rat kallikrein; rPK
On the procedure: as §1

Assay [4] has as its target T1, human plasma kallikrein. As to the method:
as §1
This is another data set of the same source.

Assay [5] concerns the target T2, rabbit plasma kallikrein. On the procedure: as §1
The source holds these as a separate data set.

Assay [6] deals with T3, rat plasma kallikrein. On the procedure:
as §1
The source holds these as a separate data set.

Where two headings read alike, the source gives them in different places. *1 amine or outer side, *2 acyl side, *3 side chain or, on linkers, in order; H or OH if unused. Bridges are numbered along the chain shown (N, C = ends). Where no end group is shown, it is not given here. [ ]: non-standard residue; d: D form. TBMB = c1c(C[*:1])cc(C[*:3])cc1C[*:2]; hArg = N=C(N)NCCCC[C@H](N)C(=O)O; Aze = O=C(O)[C@@H]1CCN1; Sar = CNCC(=O)O

T3 sequence (P14272 391-638 limits assumed): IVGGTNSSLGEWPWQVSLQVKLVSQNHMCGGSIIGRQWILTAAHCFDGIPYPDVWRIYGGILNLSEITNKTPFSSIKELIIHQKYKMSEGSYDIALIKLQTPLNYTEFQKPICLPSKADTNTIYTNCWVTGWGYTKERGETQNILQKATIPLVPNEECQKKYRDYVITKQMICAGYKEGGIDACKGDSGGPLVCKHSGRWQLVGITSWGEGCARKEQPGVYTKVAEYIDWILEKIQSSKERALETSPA
T2 sequence (heavy, as listed by the source limits assumed, form in doubt, chain 1 of 2): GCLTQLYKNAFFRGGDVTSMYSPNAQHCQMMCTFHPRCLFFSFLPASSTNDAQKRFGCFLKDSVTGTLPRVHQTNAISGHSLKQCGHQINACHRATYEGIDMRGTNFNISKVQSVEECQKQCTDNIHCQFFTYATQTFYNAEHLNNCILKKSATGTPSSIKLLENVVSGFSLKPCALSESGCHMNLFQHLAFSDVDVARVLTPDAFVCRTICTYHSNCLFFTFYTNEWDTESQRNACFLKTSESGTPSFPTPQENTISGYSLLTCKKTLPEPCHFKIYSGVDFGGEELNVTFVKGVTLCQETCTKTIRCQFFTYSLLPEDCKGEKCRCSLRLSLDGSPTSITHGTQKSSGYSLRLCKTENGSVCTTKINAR
T2 sequence (light, as listed by the source limits assumed, form in doubt, chain 2 of 2): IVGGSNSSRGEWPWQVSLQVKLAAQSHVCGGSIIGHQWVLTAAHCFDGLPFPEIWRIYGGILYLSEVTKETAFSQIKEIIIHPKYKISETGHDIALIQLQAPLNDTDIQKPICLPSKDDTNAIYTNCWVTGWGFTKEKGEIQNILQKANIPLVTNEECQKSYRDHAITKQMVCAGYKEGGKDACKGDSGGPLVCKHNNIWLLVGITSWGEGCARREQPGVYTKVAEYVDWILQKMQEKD
T1 sequence (P03952 20-638 limits assumed): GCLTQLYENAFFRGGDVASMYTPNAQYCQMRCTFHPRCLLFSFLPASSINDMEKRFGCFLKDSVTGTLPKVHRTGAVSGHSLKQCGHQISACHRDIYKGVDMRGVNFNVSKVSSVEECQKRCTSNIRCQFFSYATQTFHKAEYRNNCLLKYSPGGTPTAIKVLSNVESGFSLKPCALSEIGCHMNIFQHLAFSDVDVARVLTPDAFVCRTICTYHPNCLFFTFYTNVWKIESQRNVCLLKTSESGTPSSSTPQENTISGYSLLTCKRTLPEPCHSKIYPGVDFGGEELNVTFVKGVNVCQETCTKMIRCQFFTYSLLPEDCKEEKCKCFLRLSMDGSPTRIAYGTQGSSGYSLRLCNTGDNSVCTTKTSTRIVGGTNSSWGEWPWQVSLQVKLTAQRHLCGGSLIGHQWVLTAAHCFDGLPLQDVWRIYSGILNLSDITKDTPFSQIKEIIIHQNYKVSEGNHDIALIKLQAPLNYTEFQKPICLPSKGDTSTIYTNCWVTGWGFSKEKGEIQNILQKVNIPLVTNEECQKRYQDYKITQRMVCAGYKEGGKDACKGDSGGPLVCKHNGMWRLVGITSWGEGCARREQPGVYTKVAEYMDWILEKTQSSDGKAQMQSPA

B1: 06-254 (peptide)
peptide: ACKNYWNPCDLVTISCA-NH2
modifications: linker 2-9-16 via TBMB; N-terminus assumed
SMILES: CC[C@H](C)[C@@H]1NC(=O)[C@H]([C@@H](C)O)NC(=O)[C@H](C(C)C)NC(=O)[C@H](CC(C)C)NC(=O)[C@H](CC(=O)O)NC(=O)[C@@H]2CSCc3cc(cc(c3)CSC[C@@H](C(=O)N[C@@H](C)C(N)=O)NC(=O)[C@H](CO)NC1=O)CSC[C@H](NC(=O)[C@H](C)N)C(=O)N[C@@H](CCCCN)C(=O)N[C@@H](CC(N)=O)C(=O)N[C@@H](Cc1ccc(O)cc1)C(=O)N[C@@H](Cc1c[nH]c3ccccc13)C(=O)N[C@@H](CC(N)=O)C(=O)N1CCC[C@H]1C(=O)N2
notes: Synthetic bicyclic peptide, 6 x 6, made on Rink amide resin
With B1, the Ki came out at 5.3 nM with human plasma kallikrein [1]; 280 nM with rabbit plasma kallikrein [2]; 42.5 nM with rat plasma kallikrein [3]; 5.3 nM in the assay with human plasma kallikrein [4]; 280 nM with rabbit plasma kallikrein [5]; 42.5 nM with rat plasma kallikrein [6].

B2: Ac-(06-550)-Sar3-(DArg2) (peptide)
peptide: Ac-CSFPYRCVYYPDICA[Sar][Sar][Sar][dR][dR]-NH2
modifications: linker 1-7-14 via TBMB
notes: Synthetic bicyclic peptide, 5 x 6, made on Rink amide resin
In the case of B2, the figures for the Ki with human plasma kallikrein [4], with rabbit plasma kallikrein [5] and with rat plasma kallikrein [6] were 2.1 nM, 207 nM and 24 nM, respectively.

B3: Ac-(06-550)-Sar3-(DArg2) Aze3HArg5 (peptide)
peptide: Ac-CSF[Aze]Y[hArg]CVYYPDICA[Sar][Sar][Sar][dR][dR]-NH2
modifications: linker 1-7-14 via TBMB
notes: Synthetic bicyclic peptide, 5 x 6, made on Rink amide resin; also called Bicycle 1
Consider B3, for which the Ki with human plasma kallikrein [4] worked out at 0.4 nM; with rabbit plasma kallikrein [5], 2650 nM; with rat plasma kallikrein [6], 8.2 nM.

B4: 06-255 (peptide)
peptide: ACRNYWNPCTLINITCA-NH2
modifications: linker 2-9-16 via TBMB
notes: as for B1
In the case of B4, the Ki with human plasma kallikrein [1] is 3.4 nM; in the assay with rabbit plasma kallikrein [2], 342 nM; with rat plasma kallikrein [3], 18.9 nM; with human plasma kallikrein [4], 3.4 nM; in the assay with rabbit plasma kallikrein [5], 342 nM; with rat plasma kallikrein [6] it was 18.9 nM.

B5: 06-261 (peptide)
peptide: ACNNFPFRCVYYPDICA-NH2
modifications: linker 2-9-16 via TBMB
notes: as for B1
For the molecule B5, the Ki with human plasma kallikrein [1] is 0.4 nM; with rabbit plasma kallikrein [2], 1040 nM; in the assay with rat plasma kallikrein [3], 4 nM; with human plasma kallikrein [4] it was 0.4 nM; with rabbit plasma kallikrein [5], 1040 nM; with rat plasma kallikrein [6], 4 nM.

B6: 06-259-02 (peptide)
peptide: ACNTWNPWCPWDAPLCA-NH2
modifications: linker 2-9-16 via TBMB
notes: as for B1
In the case of B6, the values for the Ki with human plasma kallikrein [1], with rabbit plasma kallikrein [2] and with rat plasma kallikrein [3] were 2.3 nM, 1450 nM and 0.2 nM, respectively.

B7: 06-256 (peptide)
peptide: ACQKFESRCRVDTRYCA-NH2
modifications: linker 2-9-16 via TBMB
notes: as for B1
Turning to B7, the Ki in the assay with human plasma kallikrein [1] came out at 6.6 nM; with rabbit plasma kallikrein [2], 1460 nM; with rat plasma kallikrein [3], 2780 nM; in the assay with human plasma kallikrein [4], 6.6 nM; with rabbit plasma kallikrein [5] it was 1460 nM; with rat plasma kallikrein [6], 2780 nM.

B8: 06-258 (peptide)
peptide: ACPYPFRCLHENLCA-NH2
modifications: linker 2-8-14 via TBMB
notes: Synthetic bicyclic peptide, 5 x 5, made on Rink amide resin
For the molecule B8, the Ki with human plasma kallikrein [1] was determined as 4.3 nM; in the assay with rabbit plasma kallikrein [2], 331 nM; with rat plasma kallikrein [3] it was 5.2 nM; in the assay with human plasma kallikrein [4], 4.3 nM; with rabbit plasma kallikrein [5] it was 331 nM; with rat plasma kallikrein [6] it was 5.2 nM.
